Consider three substances from patent publication US20230044467A1.

A word on the Kd: it is the equilibrium constant for the complex coming apart. Low readings indicate tighter binding, high ones weaker binding.

Assay [1] has as its target Nα,Nε-diacetyl-L-Lys-D-Ala-D-Ala tripeptide. Description: ITC, tripeptide injected into 10 uM glycopeptide, 25 C, one-site model. (In general: In ITC the heat of successive injections is recorded.)
For assay [2] the target is unchanged. Description: ITC, 25 C, one-site model.

In assay [1], vancomycin (peptide) displayed a Kd of 2700 nM. Moreover, in assay [2], the TΔS is -0.96 kcal/mol, the ΔG was -7.6 kcal/mol and the ΔH was -8.6 kcal/mol.
The like results for keratinimicin A (peptide) were, in that order, 1700 nM, 0.85 kcal/mol, -7.9 kcal/mol and -7 kcal/mol.
In the case of keratinimicin C (peptide), in assay [1], the Kd was determined as 2800 nM. In assay [2], this substance yielded a TΔS of 0.2 kcal/mol, a ΔG of -7.6 kcal/mol and a ΔH of -7.4 kcal/mol.
